{
  "source": "paper PMC11510292",
  "about": "“Heterobivalent Dual-Target Peptide for Integrin-αvβ3 and Neuropeptide Y Receptors on Breast Tumor” (Pharmaceuticals, 2024)",
  "key": {"[1]": {"assay": "Biodistribution in SCID mice bearing MCF-7 xenografts", "type": "in vivo", "settings": "female, mouse, total radioactivity; for tissue uptake at 1 h / tissue uptake per volume at 1 h: SCID, MCF-7 model, 60 min p.i., 0.1 mL/18.5 MBq IV; for tissue uptake per volume at 1 h: whole blood", "procedure": "(§1) To evaluate the uptake of the radiolabeled peptide by breast tumors, additional biodistribution studies were performed in SCID mice bearing MCF-7 and MDA-MB-231 xenografts (Table 2). […] The tumor uptakes of the radiolabeled conjugate were 9.30 ± 3.25% for MCF-7 and 4.93 ± 1.01% for MDA-MB-231 (Figure 5). The tumor-to-muscle ratios were 5.65 ± 0.94 for the MCF-7 model and 7.78 ± 3.20 for the MDA-MB-231 model (Figure 6).\n(§2) The animals used in this experiment were provided by the Nuclear and Energy Research Institute (IPEN/CNEN-SP) vivarium. Every effort was made to minimize animal suffering per International Ethical Guidelines. The experimental protocols used in this study were approved by the Scientific Ethics Committee of the IPEN/CNEN-SP. Adult female SCID mice were maintained under controlled environmental conditions (12 h light-dark cycle; constant temperature 21 ± 2 °C), with free access to water and food. Suspensions of cells (5 × 10^6 in 0.1 mL) were subcutaneously injected into the upper back regions of the mice.\n(§3) […] Animals were deeply anesthetized and euthanized at the corresponding biodistribution time point. Blood, brain, spleen, heart, stomach, liver, lungs, kidneys, pancreas, muscle, bone, small intestine, and large intestine were collected and weighed. The radioactivity of each organ/tissue was then determined using the above-mentioned automatic gamma counter. The radioactivity was evaluated as the percentage of injected activity per gram of organ/tissue (%IA/g), using the same injected dose activity as a standard. Receptor-blocking studies in tumor models were also carried out by co-administration of 100 μg of cold-conjugated peptide along with radiopeptide."}, "[2]": {"assay": "Biodistribution in SCID mice bearing MDA-MB-231 xenografts", "type": "in vivo", "settings": "female, mouse, total radioactivity; for tissue uptake at 1 h / tissue uptake per volume at 1 h: SCID, MDA-MB231 model, 60 min p.i., 0.1 mL/18.5 MBq IV; for tissue uptake per volume at 1 h: whole blood", "procedure": "as §1, §2, §3"}, "[3]": {"settings": "brain, Non-Block, n = 5, read-out: Brain uptake"}, "[4]": {"settings": "heart, Block with excess cold peptide, n = 3, read-out: Heart uptake"}, "[5]": {"settings": "heart, Non-Block, n = 5, read-out: Heart uptake"}, "[6]": {"settings": "kidneys, Block with excess cold peptide, n = 3, read-out: Kidneys uptake"}, "[7]": {"settings": "kidneys, Non-Block, n = 5, read-out: Kidneys uptake"}, "[8]": {"settings": "large intestine, Block with excess cold peptide, n = 3, read-out: Large Intestine uptake"}, "[9]": {"settings": "large intestine, Non-Block, n = 5, read-out: Large Intestine uptake"}, "[10]": {"settings": "liver, Block with excess cold peptide, n = 3, read-out: Liver uptake"}, "[11]": {"settings": "liver, Non-Block, n = 5, read-out: Liver uptake"}, "[12]": {"settings": "lungs, Block with excess cold peptide, n = 3, read-out: Lungs uptake"}, "[13]": {"settings": "lungs, Non-Block, n = 5, read-out: Lungs uptake"}, "[14]": {"settings": "muscle, Block with excess cold peptide, n = 3, read-out: Muscle uptake"}, "[15]": {"settings": "muscle, Non-Block, n = 5, read-out: Muscle uptake"}, "[16]": {"settings": "pancreas, Block with excess cold peptide, n = 3, read-out: Pancreas uptake"}, "[17]": {"settings": "pancreas, Non-Block, n = 5, read-out: Pancreas uptake"}, "[18]": {"settings": "small intestine, Block with excess cold peptide, n = 3, read-out: Small Intestine uptake"}, "[19]": {"settings": "small intestine, Non-Block, n = 5, read-out: Small Intestine uptake"}, "[20]": {"settings": "spleen, Block with excess cold peptide, n = 3, read-out: Spleen uptake"}, "[21]": {"settings": "spleen, Non-Block, n = 5, read-out: Spleen uptake"}, "[22]": {"settings": "stomach, Block with excess cold peptide, n = 3, read-out: Stomach uptake"}, "[23]": {"settings": "stomach, Non-Block, n = 5, read-out: Stomach uptake"}, "[24]": {"settings": "tumor, Non-Block, n = 5, read-out: Tumor uptake"}, "[25]": {"settings": "Block with excess cold peptide, n = 3"}},
  "data": [
    {"compound": "CCCC[C@H](NC(=O)[C@H](CCCNC(=N)N)NC(=O)[C@H](Cc1c[nH]c2ccccc12)NC(=O)[C@H](CSCC(=O)NCCCC[C@@H]1NC(=O)[C@@H](Cc2ccccc2)NC(=O)[C@H](CC(=O)O)NC(=O)CNC(=O)[C@H](CCCNC(=N)N)NC1=O)NC(=O)[C@@H]1CCCN1C(=O)[C@H](CC(N)=O)NC(=O)[C@@H](NC(=O)COCCOCCNC(=O)c1ccc(NN)nc1)[C@@H](C)CC)C(=O)N[C@@H](CCCNC(=N)N)C(=O)N[C@@H](Cc1ccc(O)cc1)C(N)=O", "note": "[[^99mTc]HYNIC-cRGDfk-NPY, metal not drawn]", "values": [
      {"measurement": "tissue uptake at 1 h", "setting": "[1]; [3]", "value": "0.16 ± 0.06", "unit": "%ID/g"},
      {"measurement": "tissue uptake at 1 h", "setting": "[1]; [4]", "value": "0.65 ± 0.24", "unit": "%ID/g"},
      {"measurement": "tissue uptake at 1 h", "setting": "[1]; [5]", "value": "1.53 ± 0.45", "unit": "%ID/g"},
      {"measurement": "tissue uptake at 1 h", "setting": "[1]; [6]", "value": "20.8 ± 7.02", "unit": "%ID/g"},
      {"measurement": "tissue uptake at 1 h", "setting": "[1]; [7]", "value": "24.6 ± 8.6", "unit": "%ID/g"},
      {"measurement": "tissue uptake at 1 h", "setting": "[1]; [8]", "value": "3.91 ± 2.11", "unit": "%ID/g"},
      {"measurement": "tissue uptake at 1 h", "setting": "[1]; [9]", "value": "6.41 ± 1.63", "unit": "%ID/g"},
      {"measurement": "tissue uptake at 1 h", "setting": "[1]; [10]", "value": "1.84 ± 0.13", "unit": "%ID/g"},
      {"measurement": "tissue uptake at 1 h", "setting": "[1]; [11]", "value": "3.61 ± 0.73", "unit": "%ID/g"},
      {"measurement": "tissue uptake at 1 h", "setting": "[1]; [12]", "value": "1.59 ± 0.34", "unit": "%ID/g"},
      {"measurement": "tissue uptake at 1 h", "setting": "[1]; [13]", "value": "3.58 ± 1.22", "unit": "%ID/g"},
      {"measurement": "tissue uptake at 1 h", "setting": "[1]; [14]", "value": "0.59 ± 0.37", "unit": "%ID/g"},
      {"measurement": "tissue uptake at 1 h", "setting": "[1]; [15]", "value": "1.56 ± 1.41", "unit": "%ID/g"},
      {"measurement": "tissue uptake at 1 h", "setting": "[1]; [16]", "value": "1.12 ± 0.42", "unit": "%ID/g"},
      {"measurement": "tissue uptake at 1 h", "setting": "[1]; [17]", "value": "1.62 ± 0.3", "unit": "%ID/g"},
      {"measurement": "tissue uptake at 1 h", "setting": "[1]; [18]", "value": "3.77 ± 0.95", "unit": "%ID/g"},
      {"measurement": "tissue uptake at 1 h", "setting": "[1]; [19]", "value": "10.3 ± 2.18", "unit": "%ID/g"},
      {"measurement": "tissue uptake at 1 h", "setting": "[1]; [20]", "value": "2.53 ± 0.74", "unit": "%ID/g"},
      {"measurement": "tissue uptake at 1 h", "setting": "[1]; [21]", "value": "5.33 ± 1.88", "unit": "%ID/g"},
      {"measurement": "tissue uptake at 1 h", "setting": "[1]; [22]", "value": "2.98 ± 0.57", "unit": "%ID/g"},
      {"measurement": "tissue uptake at 1 h", "setting": "[1]; [23]", "value": "6.04 ± 1.15", "unit": "%ID/g"},
      {"measurement": "tissue uptake at 1 h", "setting": "[1]; tumor, Block with excess cold peptide, n = 3, p > 0.05 vs non-block, read-out: Tumor uptake", "value": "4.41 ± 2.13", "unit": "%ID/g"},
      {"measurement": "tissue uptake at 1 h", "setting": "[1]; [24]", "value": "9.3 ± 3.25", "unit": "%ID/g"},
      {"measurement": "tissue uptake per volume at 1 h", "setting": "[1]; [25]", "value": "0.92 ± 0.07", "unit": "%ID/mL"},
      {"measurement": "tissue uptake per volume at 1 h", "setting": "[1]; Non-Block, n = 5", "value": "1.66 ± 0.89", "unit": "%ID/mL"},
      {"measurement": "tissue to tissue ratio at 1 h", "setting": "[1]; tumor and muscle, 37 MBq, MCF-7 tumor-bearing SCID mice, 1 h after IV injection, n = 5", "value": "5.65 ± 0.94"},
      {"measurement": "tissue uptake at 1 h", "setting": "[2]; bone, Block with excess cold peptide, n = 3, read-out: Bone uptake", "value": "0.53 ± 0.16", "unit": "%ID/g"},
      {"measurement": "tissue uptake at 1 h", "setting": "[2]; bone, Non-Block, n = 5, read-out: Bone uptake", "value": "1.22 ± 0.28", "unit": "%ID/g"},
      {"measurement": "tissue uptake at 1 h", "setting": "[2]; brain, Block with excess cold peptide, n = 3, read-out: Brain uptake", "value": "0.09 ± 0.01", "unit": "%ID/g"},
      {"measurement": "tissue uptake at 1 h", "setting": "[2]; [3]", "value": "0.18 ± 0.04", "unit": "%ID/g"},
      {"measurement": "tissue uptake at 1 h", "setting": "[2]; [4]", "value": "0.74 ± 0.2", "unit": "%ID/g"},
      {"measurement": "tissue uptake at 1 h", "setting": "[2]; [5]", "value": "1.48 ± 0.29", "unit": "%ID/g"},
      {"measurement": "tissue uptake at 1 h", "setting": "[2]; [6]", "value": "13 ± 2.68", "unit": "%ID/g"},
      {"measurement": "tissue uptake at 1 h", "setting": "[2]; [7]", "value": "19.3 ± 2.89", "unit": "%ID/g"},
      {"measurement": "tissue uptake at 1 h", "setting": "[2]; [8]", "value": "2.22 ± 0.98", "unit": "%ID/g"},
      {"measurement": "tissue uptake at 1 h", "setting": "[2]; [9]", "value": "5.18 ± 0.87", "unit": "%ID/g"},
      {"measurement": "tissue uptake at 1 h", "setting": "[2]; [10]", "value": "1.41 ± 0.62", "unit": "%ID/g"},
      {"measurement": "tissue uptake at 1 h", "setting": "[2]; [11]", "value": "3.75 ± 0.51", "unit": "%ID/g"},
      {"measurement": "tissue uptake at 1 h", "setting": "[2]; [12]", "value": "1.95 ± 0.6", "unit": "%ID/g"},
      {"measurement": "tissue uptake at 1 h", "setting": "[2]; [13]", "value": "3.27 ± 0.47", "unit": "%ID/g"},
      {"measurement": "tissue uptake at 1 h", "setting": "[2]; [14]", "value": "0.33 ± 0.02", "unit": "%ID/g"},
      {"measurement": "tissue uptake at 1 h", "setting": "[2]; [15]", "value": "0.88 ± 0.13", "unit": "%ID/g"},
      {"measurement": "tissue uptake at 1 h", "setting": "[2]; [16]", "value": "0.7 ± 0.21", "unit": "%ID/g"},
      {"measurement": "tissue uptake at 1 h", "setting": "[2]; [17]", "value": "1.35 ± 0.35", "unit": "%ID/g"},
      {"measurement": "tissue uptake at 1 h", "setting": "[2]; [18]", "value": "2.16 ± 0.74", "unit": "%ID/g"},
      {"measurement": "tissue uptake at 1 h", "setting": "[2]; [19]", "value": "8.3 ± 1.36", "unit": "%ID/g"},
      {"measurement": "tissue uptake at 1 h", "setting": "[2]; [20]", "value": "1.51 ± 0.22", "unit": "%ID/g"},
      {"measurement": "tissue uptake at 1 h", "setting": "[2]; [21]", "value": "5.02 ± 0.63", "unit": "%ID/g"},
      {"measurement": "tissue uptake at 1 h", "setting": "[2]; [22]", "value": "2.05 ± 0.33", "unit": "%ID/g"},
      {"measurement": "tissue uptake at 1 h", "setting": "[2]; [23]", "value": "5.63 ± 0.96", "unit": "%ID/g"},
      {"measurement": "tissue uptake at 1 h", "setting": "[2]; tumor, Block with excess cold peptide, n = 3, p < 0.05 vs non-block, read-out: Tumor uptake", "value": "2.3 ± 0.41", "unit": "%ID/g"},
      {"measurement": "tissue uptake at 1 h", "setting": "[2]; [24]", "value": "4.93 ± 1.01", "unit": "%ID/g"},
      {"measurement": "tissue uptake per volume at 1 h", "setting": "[2]; [25]", "value": "1.4 ± 0.21", "unit": "%ID/mL"},
      {"measurement": "tissue uptake per volume at 1 h", "setting": "[2]; Non-Block, n = 5", "value": "1.8 ± 1.03", "unit": "%ID/mL"},
      {"measurement": "tissue to tissue ratio at 1 h", "setting": "[2]; tumor and muscle, 37 MBq, MDA-MB-231 tumor-bearing SCID mice, 1 h after IV injection, n = 5", "value": "7.78 ± 3.2"}
    ]}
  ]
}
